# Experimental data reported in US10184137B2, “Method of producing isoprene monomer” (AJINOMOTO CO., INC., priority 2014, dated 2019).
# Several values for one entry are separate records, joined by “and”; a condition that tells them apart may be missing. Equal entries are not always repeated.
# B1: sce: mevalonate kinase of Saccharomyces cerevisiae encoded by the ERG12 gene, His-tagged purified enzyme (protein, UniProt P07277 1-443, looked up)
# Mevalonate kinase: MSLPFLTSAPGKVIIFGEHSAVYNKPAVAASVSALRTYLLISESSAPDTIELDFPDISFNHKWSINDFNAITEDQVNSQKLAKAQQATDGLSQELVSLLDPLLAQLSESFHYHAAFCFLYMFVCLCPHAKNIKFSLKSTLPIGAGLGSSASISVSLALAMAYLGGLIGSNDLEKLSENDKHIVNQWAFIGEKCIHGTPSGIDNAVATYGNALLFEKDSHNGTINTNNFKFLDDFPAIPMILTYTRIPRSTKDLVARVRVLVTEKFPEVMKPILDAMGECALQGLEIMTKLSKCKGTDDEAVETNNELYEQLLELIRINHGLLVSIGVSHPGLELIKNLSDDLRIGSTKLTGAGGGGCSLTLLRRDITQEQIDSFKKKLQDDFSYETFETDLGGTGCCLLSAKNLNKDLKIKSLVFQLFENKTTTKQQIDDLLLPGNTNLPWTS
# modifications: His-tag
# B2: mma: known mevalonate kinase derived from Methanosarcina mazei (SEQ ID NO:12), His-tagged purified enzyme (protein, listed as Methanosarcina mazei)
# chain: MVSCSAPGKIYLFGEHAVVYGETAIACAVELRTRVRAELNDSITIQSQIGRTGLDFEKHPYVSAVIEKMRKSIPINGVFLTVDSDIPVGSGLGSSAAVTIASIGALNELFGFGLSLQEIAKLGHEIEIKVQGAASPTDTYVSTFGGVVTIPERRKLKTPDCGIVIGDTGVFSSTKELVANVRQLRESYPDLIEPLMTSIGKISRIGEQLVLSGDYASIGRLMNVNQGLLDALGVNILELSQLIYSARAAGAFGAKITGAGGGGCMVALTAPEKCNQVAEAVAGAGGKVTITKPTEQGLKVD
# modifications: His-tag
# B3: mpd: mevalonate kinase derived from Methanocella paludicola (SEQ ID NO:1), His-tagged purified enzyme (protein, listed as Methanocella paludicola)
# chain: MTMCSAPGKVFLFGEHAVVYGKRAIACAIDLRTTVEVSRKSRGVHIHSAFKDEPDKNLYIKTAVKRMQKCADIRNVNIAVSSRIPVASGLGSSAAVTVATIGALNEEFSAGLSKKDIAYMAYQTELEVQGAASPTDTFVSTMGGTVVVPDMRTLPPITCGIVVGHTGISKSTSRMVSRVRTLKEKYPDVIDGIMDSIGDISARGEDLIKQNDYRSIGELMNVNQGLLDALGITIPELSLQIYAARQHGAYGAKITGAGGGGCMVAICDDKNCKEIATAIGRSYGDSFISKPTAEGIFIQ
# modifications: His-tag
# B4: cva: mevalonate kinase derived from Corynebacterium variabile (SEQ ID NO:3), His-tagged purified enzyme (protein)
# chain: MAPHVGHGQTVAKIILFGEHSVVYGHPAIAMPLRTLRMIARVEPTDGPGTLSGLGWTGPITEAPARFSSIVKAAEVASDFAGHPGAGLNISTESEFPPERGLGSSAAAAGAVIRAVLDAFDTPATPRELFDLTQEAETVAHGRPSGLDAVATSAEAPVHFQAGQATDLEFSPDAWIVIADSGVEGSTRETVGHVRGRFEAEPDIITALLNRLGEITDEVVVDLRTGDVQGMGARMTEAHGILGQLGVSNTQLDALVTASLGAGALGAKLTGGGRGGCVIALAATEEDAENVEKALVDAGARGTWVHAPATGQMAGEVMQ
# modifications: His-tag; Corynebacterium variabile
# System: mevalonate kinase
# Experiment: Expression analysis and activity confirmation of His-tagged mevalonate kinases from pET-21a(+) and pET-28b(+)
# Assay type: biochemical
# Conditions: His-spinTrap eluate after dialysis, 10 μl enzyme solution
# Method: Each obtained plasmid was used for transformation of E. coli BL21(DE3). […] When OD600 reached approximately 0.5, IPTG was added to the solution to final concentration of 1 mM. It was then cultured overnight at 20° C. Harvested cells were suspended in the buffer solution consisting of 50 mM sodium phosphate, 0.3 M NaCl and 20 mM Imidazol. Then the cells were disrupted with an ultrasonic disruptor (TOMY: UD-201, output level=3.5). After centrifugation (20,000×g, 20 min), disrupted cells were adsorbed to His-spinTrap (GE Healthcare). After washing with the same buffer solution, protein was eluted with the buffer solution consisting of 50 mM sodium phosphate, 0.3 M NaCl and 0.5 M imidazole (pH7.5). Eluate was dialyzed overnight at 4° C. with the external solution composed of 20 mM Tris-HCl (pH7.5) and 50 mM NaCl. Then, enzyme activity of each eluate in the internal dialysis solution was measured.
# Activity of the internal dialysate (about 0.2 ml each) was measured with the 10 μl of enzyme solution (Table 8). Enzyme expression level was compared on activity basis between pET-21a(+) and pET-28b(+). […] It is inferred that expression level is higher in pET-28b(+). Therefore, purified enzyme expressed in pET-28b(+) was used in the further examinations.
# Values were presented by decrease in absorbance per unit time per 10 μl in the enzyme reaction measurement system (dABS/min/10 μl).
# (§1) Decrease in absorbance at 340 nm at 30° C. was measured to determine the enzyme activity. JASCO Corporation's spectrophotometer (V-650) was used in this study. Millimolar extinction coefficient of NADH used in this study was 6.22 mM^−1 cm^−1. […] Km value was calculated by Lineweaver-Burk plot.
Molecule,"enzyme activity, pET21 system (C terminal Tag) [dABS/min/10 μl]","enzyme activity, pET28 system (N terminal Tag) [dABS/min/10 μl]"
B1,0.001,0.127
B2,0.225,0.231
B3,0.011,0.031
B4,0.019,0.211

# System: mevalonate kinase
# Experiment: Measurement of activity and Km value of purified mevalonate kinase (PK/LDH coupled, 340 nm)
# Assay type: biochemical
# Conditions: ATP 0.04 mM, potassium mevalonate 5 mM; 10 μl enzyme in 1 ml; replicate values
# Method: Each obtained plasmid was used for transformation of E. coli BL21(DE3). […] When OD600 reached approximately 0.5, 0.1 mM IPTG (for cva, mma, nmr, and sce) or 1 mM (for mcl and mpd) of IPTG was added, and then the mixture was kept at 20° C. overnight to induce the target protein. Harvested cells were suspended in buffer solution A (50 mM sodium phosphate, 0.3 M NaCl and 20 mM Imidazol), and then the cells were disrupted with an ultrasonic disruptor (TOMY: UD-201). […] After centrifugation (28,000×g, 30 min), the supernatant was adsorbed onto His-Trap HP (GE Healthcare) to elute the target protein by linear concentration gradient of Imidazol (final concentration 0.5 M). Obtained protein was dialyzed by using an external solution composed of 20 mM Tris-HCl (pH 8.0) containing 1 mM DTT and 50 mM NaCl. Dialyzed protein was designated as purified enzyme. Protein quantity was measured with Bio-RAD protein assay kit and BSA standard condition.
# as §1
# Measured activity of each enzyme (JABS/min) was presented on Table 9 for the calculation of apparent Km value (Km app.) of each enzyme. Table 10 presents Km app., Vmax, molecular weight of the enzyme protein, protein concentration in the enzyme solution and calculated kcat.
# Activity was indicated by dABS/min when 10 μl of each enzyme was added to 1 ml of reaction solution.
row,Molecule,dABS/min at ATP 0.04 mM
1,B2,0.01326 dABS/min and 0.01358 dABS/min and 0.01398 dABS/min
2,B3,0.01369 dABS/min and 0.01352 dABS/min and 0.01403 dABS/min

# Same assay, conditions: ATP 0.2 mM, potassium mevalonate 5 mM; 10 μl enzyme in 1 ml; replicate values
row,Molecule,dABS/min at ATP 0.2 mM
1,B1,0.03041 dABS/min and 0.0304 dABS/min and 0.03229 dABS/min
2,B2,0.05835 dABS/min and 0.05848 dABS/min and 0.05859 dABS/min
3,B3,0.03262 dABS/min and 0.03252 dABS/min and 0.0325 dABS/min
4,B4,0.005822 dABS/min and 0.005967 dABS/min and 0.005722 dABS/min

# Same assay, conditions: ATP 1 mM, potassium mevalonate 5 mM; 10 μl enzyme in 1 ml; replicate values
row,Molecule,dABS/min at ATP 1 mM
1,B1,0.07032 dABS/min and 0.07022 dABS/min and 0.0702 dABS/min
2,B2,0.1533 dABS/min (2×) and 0.1528 dABS/min
3,B3,0.04713 dABS/min and 0.04701 dABS/min and 0.04689 dABS/min
4,B4,0.02063 dABS/min and 0.02015 dABS/min and 0.02051 dABS/min

# Same assay, conditions: ATP 5 mM, potassium mevalonate 5 mM; 10 μl enzyme in 1 ml; replicate values
row,Molecule,dABS/min at ATP 5 mM
1,B1,0.09422 dABS/min and 0.0941 dABS/min and 0.09418 dABS/min
2,B3,0.05141 dABS/min (2×) and 0.05155 dABS/min
3,B4,0.03739 dABS/min and 0.03744 dABS/min and 0.03741 dABS/min

# Same assay, conditions: in words
row,Molecule,affinity to mevalonate and ATP compared with the other enzymes
1,B3,higher affinity to mevalonate and ATP than the other enzymes

# Same assay, conditions: potassium mevalonate 0.01 mM, ATP 5 mM; 10 μl enzyme in 1 ml; replicate values
row,Molecule,dABS/min at mev 0.01 mM
1,B1,0.01813 dABS/min and 0.01981 dABS/min and 0.01853 dABS/min
2,B2,0.02921 dABS/min and 0.02805 dABS/min and 0.02788 dABS/min
3,B3,0.06401 dABS/min and 0.0638 dABS/min and 0.06377 dABS/min
4,B4,0.01264 dABS/min and 0.01267 dABS/min and 0.01265 dABS/min

# Same assay, conditions: potassium mevalonate 0.04 mM, ATP 5 mM; 10 μl enzyme in 1 ml; replicate values
row,Molecule,dABS/min at mev 0.04 mM
1,B1,0.05257 dABS/min and 0.05264 dABS/min and 0.05265 dABS/min
2,B2,0.08012 dABS/min and 0.08006 dABS/min and 0.08009 dABS/min
3,B3,0.1211 dABS/min and 0.1213 dABS/min and 0.121 dABS/min
4,B4,0.03701 dABS/min and 0.03703 dABS/min and 0.03697 dABS/min

# Same assay, conditions: potassium mevalonate 0.2 mM, ATP 5 mM; 10 μl enzyme in 1 ml; replicate values
row,Molecule,dABS/min at mev 0.2 mM
1,B1,0.11 dABS/min and 0.1103 dABS/min (2×)
2,B2,0.1761 dABS/min and 0.1758 dABS/min and 0.176 dABS/min
3,B3,0.1506 dABS/min (2×) and 0.1505 dABS/min
4,B4,0.0771 dABS/min and 0.07712 dABS/min and 0.07711 dABS/min

# System: mevalonate kinase
# Experiment: Inhibition of each mevalonate kinase by DMAPP, GPP, FPP or DPM
# Assay type: biochemical
# Conditions: Table 11 control without terpenyl diphosphate (methanol added)
# Method: Since GPP and FPP solutions contain methanol, methanol which was needed to keep the same methanol level at the addition to the reaction system was added to the reaction solution, which was designated as control.
# Respective effect of the added 5 mM DMAPP, 0.1 mM GPP, and 0.1 mM FPP on the activity of each enzyme was measured. […] Contrarily, mcl-derived enzyme was activated by 5 mM DMAPP and its activity increased by 20% from that of the control.
# Activity when 10 μl of each enzyme was added to 1 ml of the reaction system was represented by dABS/min
# Effect of 1 mM diphosphomevalonate (DPM) on each enzyme was also studied.
row,Molecule,"enzyme activity, Control [dABS/min]"
1,B1,0.1365
2,B2,0.21
3,B3,0.1573
4,B4,0.08338

# Same assay, conditions: Table 12 control without DPM
row,Molecule,"enzyme activity, Control [dABS/min]"
1,B1,0.1028
2,B2,0.1604
3,B3,0.148
4,B4,0.07328

# System: mevalonate kinase
# Experiment: Examination of product inhibition on each mevalonate kinase (absorbance at 386 nm, PMK addition)
# Assay type: biochemical
# Conditions: 1 mM mevalonate as substrate; in words
# Method: When decrease in absorbance stopped, purified PMK was added to measure further decrease in absorbance at 386 nm.
# FIG. 18 presents the SDS-PAGE profile of the purified PMK. […] Then, absorbance decreased further and finally absorbance at 386 nm decreased to 0.3 in all reaction systems. Therefore, it is inferred that mevalonate is converted into diphosphomevalonate via phosphomevalonate by adding PMK to each MVK.
row,course of decrease in absorbance at 386 nm until PMK addition,Molecule
1,almost linear decrease in absorbance,B1
2,almost linear decrease in absorbance,B2
3,almost linear decrease in absorbance,B3
4,almost linear decrease in absorbance,B4
